For orientation: Kd means the free concentration of one partner at which half of the binding sites on the other are occupied at equilibrium, for simple one-to-one binding. In general, IC50 refers to the concentration needed to halve the response being measured.

Test [1] addresses HLA-B*58:01. In words: IEDB peptide-MHC binding, purified MHC/competitive/radioactivity; filed as Kd, often an IC50 or EC50 that approximates it; ≥ and ≤ were set here for values at or beyond the usual limits of such assays.
For test [2], the target named is HLA-B*57:01. The test is described as above.
In test [3] the target is HLA-A*02:01. In words: IEDB peptide-MHC binding, purified MHC/competitive/fluorescence; ≥ and ≤ were set here for values at or beyond the usual limits of such assays. The conditions noted are these: source organism: Zaire ebolavirus.
Test [4] addresses HLA-A*24:02. The description is as above.
Test [5] addresses HLA-A*32:01. In words: IEDB peptide-MHC binding, purified MHC/competitive/radioactivity; filed as Kd, often an IC50 or EC50 that approximates it; ≥ and ≤ were set here for values at or beyond the usual limits of such assays.
The target in test [6] is HLA-A*68:02. The description is as above.
Test [7] deals with HLA-A*11:01. The description is as above.
For test [8], the target named is HLA-A*68:01. The description is as above. The note with it: source organism: Vaccinia virus WR.
For test [9], the target named is HLA-A*31:01. The description is as above. The conditions noted are these: source organism: Vaccinia virus WR.
Test [10] addresses HLA-B*54:01. Described as above.
In test [11] the target is HLA-A*02:06. The description is as above. The note with it: source organism: Vaccinia virus WR.
In test [12] the target is HLA-B*53:01. The test is described as above.
Test [13] has as its target HLA-A*02:03. Described as above. The note with it: source organism: Vaccinia virus WR.
The target of test [14] is HLA-A*02:01. The test is described as above. The note with it: source organism: Vaccinia virus WR.
Test [15] deals with HLA-B*51:01. The description is as above.
In test [16] the target is HLA-B*35:01. The description is as above.
In test [17] the target is HLA-A*03:01. The test is described as above. The note with it: source organism: Vaccinia virus WR.
The target of test [18] is HLA-A*33:01. The description is as above. The conditions noted are these: source organism: Vaccinia virus WR.
For test [19], the target named is HLA-B*07:02. The description is as above.
In test [20] the target is HLA-A*02:02. The test is described as above. The note with it: source organism: Vaccinia virus WR.
The target in test [21] is HLA-B*27:05. In words: IEDB peptide-MHC binding, purified MHC/direct/fluorescence; filed as Kd, often an IC50 or EC50 that approximates it; ≥ and ≤ were set here for values at or beyond the usual limits of such assays.
The target of test [22] is HLA-B*48:01. The test is described as above.
The mark [23] stands for this setting: source organism: Dengue virus 4 Philippines/H241/1956.
[24] abbreviates: source organism: Dengue virus 3 Martinique/1243/1999.
[25] abbreviates: source organism: Zaire ebolavirus.
[26] abbreviates: source organism: Dengue virus 2 Jamaica/1409/1983.
Setting [27] is: source organism: Dengue virus 4 Dominica/814669/1981.
Where [28] appears, read: source organism: Vaccinia virus WR.
[29] abbreviates: source organism: Triticum aestivum.
The mark [30] stands for this setting: source organism: Dengue virus 1 Brazil/97-11/1997.
The mark [31] stands for this setting: source organism: Mammarenavirus lassaense.
[32] abbreviates: source organism: Lassa virus Josiah.

Bounds are passed on as bounds.

On to ISSTPFAEYT, for which, in [1] (setting [23]), the Kd amounted to 2050 nM.

For the sequence RTSWALCEAL, the Kd in test [2] (setting [24]) was determined as 1710 nM.

For the sequence IQAFEAGVD, the IC50 is at least 210000 nM in test [3] and 32900 nM in test [4] (setting [25]).

As for KATREAQKRA, the Kd is 847 nM in test [2] (setting [26]) and 10700 nM in [1] (setting [26]).

In the case of GSSKIRWIVE, the figures for the Kd in test [2] (setting [23]) and in test [5] (setting [23]) were 868 nM and 2260 nM, respectively.

In test [4] (setting [25]), IWMAPSLTE had an IC50 of 256 nM.

Consider LTSTWVMYGT, for which the values for the Kd in test [2] (setting [27]) and in [1] (setting [27]) were 2540 nM and 663 nM, respectively.

Consider GAAFSGVSW, for which the Kd in test [2] (setting [26]) was determined as 22.8 nM; in [1] (setting [26]), 126 nM.

For SASSMVNGVV, the Kd in test [6] (setting [26]) was found to be 10.2 nM; in test [2] (setting [26]), 227 nM; in [1] (setting [26]), 2040 nM.

As for GTSADLTVEK, the Kd in [7] (setting [24]) came out at 219 nM; in test [2] (setting [24]) it was 3510 nM.

For the sequence RSLIGNEEF, the Kd in test [5] (setting [24]) is 4650 nM; in [1] (setting [24]), 15.4 nM.

For VSSVNTTSKM, the Kd in [2] (setting [23]) was found to be 12100 nM; in test [1] (setting [23]), 1450 nM.

For the sequence TVLGLGLSLK, the Kd in test [8] was 73.6 nM; in [9], 898 nM; in test [7] (setting [28]) it was 1.61 nM; in test [6] (setting [28]) it was at least 69800 nM; in test [10] (setting [28]), at least 69900 nM; in test [11], at least 51200 nM. The Kd is at least 69900 nM in test [12] (setting [28]); at least 70400 nM in [13]; at least 69400 nM in test [14]; at least 61800 nM in [15] (setting [28]); at least 24000 nM in [16] (setting [28]); 19.3 nM in test [17]. The results for the Kd in [18], in test [19] (setting [28]) and in test [20] were 14400 nM, at least 69600 nM and at least 61300 nM, respectively.

As for FVVDNVHTW, the Kd stood at 8.45 nM in test [12] (setting [27]) and 106 nM in [1] (setting [27]).

On to FGSVGGLFTS, for which the Kd in test [1] (setting [27]) amounted to 220 nM.

Turning to IPCMDVVL, the Kd is at least 87700 nM in test [10] (setting [29]); at least 41100 nM in test [12] (setting [29]); 1300 nM in test [15] (setting [29]); 16200 nM in test [16] (setting [29]); at least 40400 nM in [19] (setting [29]).

LGFMNEDHW: the Kd in test [2] (setting [30]) came to 26.2 nM.

As for KRASPILRF, the Kd in test [21] (setting [31]) was 87 nM; in [22] (setting [31]), at least 20000 nM.

Consider KAIKILTGF, for which the Kd was found to be 66.7 nM in test [2] (setting [23]) and 22.4 nM in test [1] (setting [23]).

Sequence VGVNTQETI displayed an IC50 in test [4] (source organism: Sudan ebolavirus) of 7560 nM.

With KQAKAPESK, the values for the Kd in test [21] (setting [32]) and in test [22] (setting [32]) were 704 nM and at least 20000 nM, respectively.

With LSIPPTAGI, in test [1] (setting [23]), the dissociation constant (Kd) amounted to 24.1 nM.

In the case of TLAAMPEEE, in [4] (setting [25]), the IC50 was 10000 nM.

Take PATLFVWYFW: the Kd is 169 nM in test [2] (setting [30]), 15500 nM in [5] (setting [30]) and 9290 nM in test [1] (setting [30]).

Consider MAILGDTAW, for which the Kd worked out at 9.79 nM in test [12] (setting [26]), 22.6 nM in test [2] (setting [26]), 3.34 nM in test [1] (setting [26]) and 33.1 nM in test [16] (setting [26]).

As for MLAVWNRVW, the Kd in test [2] (setting [26]) is 20.6 nM; in test [1] (setting [26]) it was 113 nM.

In the case of QSSSMRKTDW, the figures for the Kd in test [2] (setting [24]) and in test [1] (setting [24]) were 151 nM and 75.8 nM, respectively.

Values taken from the Immune Epitope Database (IEDB).
